B1: library; numbered along this chain (parent)
chain: MAAAAAAAAEQQSSNGPVKKSMREKAVERRSVNKEHNSNFKAGYIPIDEDRLHKTGLRGRKGNLAICVIILLFILAVINLIITLVIWAVIRIGPNGCDSMEFHESGLLRFKQVSDMGVIHPLYKSTVGGRRNENLVITGNNQPIVFQQGTTKLSVENNKTSITSDIGMQFFDPRTQNILFSTDYETHEFHLPSGVKSLNVQKASTERITSNATSDLNIKVDGRAIVRGNEGVFIMGKTIEFHMGGNMELKAENSIILNGSVMVSTTRLPSSSSGDQLGSGDWVRYKLCMCADGTLFKVQVTSQNMGCQISDNPCGNTH

Variants of: B1
Assay: SGCB cell-surface expression functional score (HA stain, bin4 vs bin1, normalised to synonymous) (log10 ratio); higher = more cell-surface SGCB (functional)
Procedure, shortened: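 Using lentivirus at MOI <0.1, HA-tagged, YFP-fused human beta-sarcoglycan codon-saturation libraries were put into HEK293 cells with stable alpha-, gamma- and delta-sarcoglycan expression, in duplicate transductions. YFP-positive cells were collected by sorting 72 hours later, grown 5–7 days, stained on ice with Alexa Fluor 647 anti-HA, fixed, sorted into four 5% intensity bins and amplicon-sequenced. The functional score takes the median, across codons and transductions, of the log ratio of highest-bin to lowest-bin variant frequency. Within each section, synonymous variants were scaled to mean 0, SD 0.5.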

Variant | SGCB cell-surface expression functional score (log10)
P313M | -0.49
P313H | -0.07
P313C | 0.15
P313W | -0.38
P313S | -0.17
P313G | -0.17
P313T | 0.06
P313L | -0.14
P313N | 0.01
P313A | 0.41
P313Y | -0.27
P313K | -0.22
P313E | 0.11
P313F | -0.03
P313I | -0.92
P313D | -0.42
P313R | -0.02
P313V | 0.23
P313Q | -0.3
C314T | -0.78
C314P | -0.09
C314K | 0.06
C314R | -1.01
C314G | -0.29
C314L | -0.5
C314I | -0.11

Variant | SGCB cell-surface expression functional score (log10)
C314Q | 0.15
C314D | 0.34
C314A | 0.07
C314F | -0.43
C314M | -1.88
C314W | 0.19
C314V | 0
C314Y | -0.32
C314E | -0.03
C314N | -0.61
C314S | -0.27
C314H | -0.18
N304M | -1.75
N304A | -0.43
N304P | -0.2
N304W | 0.2
N304S | -0.45
N304E | 0.56
N304Q | -0.11
N304K | 0.07
N304L | -0.14
N304C | -0.06
N304I | -0.42
N304T | -0.51
N304R | -0.41
N304V | -1.11

Variant | SGCB cell-surface expression functional score (log10)
N304H | 0.26
N304Y | -0.11
N304G | 0.09
N304F | -0.09
N304D | -0.34
G315L | -0.02
G315F | -0.43
G315N | 0.02
G315D | -0.41
G315C | -0.05
G315Q | 0.1
G315V | -0.01
G315W | 0.43
G315T | 0.15
G315E | 0.04
G315Y | 0.26
G315M | 0.54
G315S | -0.28
G315H | 0.04
G315R | 0.03
G315P | -0.04
G315K | -0.14
G315I | -0.24
G315A | -0.11
I309C | -1.19
I309A | 0.27

Variant | SGCB cell-surface expression functional score (log10)
I309K | -0.24
I309S | 0.1
I309G | -0.41
I309H | -0.32
I309M | -0.08
I309W | 0.15
I309F | -0.22
I309E | -0.14
I309V | -0.63
I309P | -0.24
I309R | 0
I309N | 0.02
I309Q | -0.01
I309L | 0.13
I309Y | -0.22
I309D | -1.61
I309T | 0.29
S310N | 0.59
S310E | -0.2
S310F | 0.06
S310M | -0.01
S310A | -0.09
S310L | 0.07
S310H | -0.5
S310C | -0.2
S310V | 0.14

Variant | SGCB cell-surface expression functional score (log10)
S310W | 0.98
S310P | -0.54
S310K | 0.24
S310I | 0.04
S310G | 0.34
S310D | -0.01
S310Y | 0.49
S310Q | 0.27
S310R | -0.02
S310T | -0.25
T317C | 0.17
T317P | -0.04
T317E | -0.34
T317V | -0.26
T317F | 0.01
T317Q | 0.03
T317L | -0.33
T317H | -0.39
T317N | 0.08
T317D | -1.71
T317S | 0.15
T317R | -0.1
T317W | 0.32
T317M | -0.28
T317G | 0.44
T317I | 0.05

Variant | SGCB cell-surface expression functional score (log10)
T317A | -0.21
T317Y | 0.51
T317K | 0.5
Q303W | -0.98
Q303T | -0.46
Q303I | 0.25
Q303D | 0.36
Q303H | 0.07
Q303Y | -0.3
Q303V | 0.37
Q303R | -0.45
Q303P | 0.04
Q303M | -0.16
Q303G | 0.2
Q303F | 0.11
Q303C | 0.15
Q303S | -0.43
Q303N | -0.9
Q303L | -0.16
Q303K | -0.33
Q303A | -0.65
Q303E | 0.08
C307M | -0.59
C307V | -1.17
C307R | -0.37
C307L | -0.21

Variant | SGCB cell-surface expression functional score (log10)
C307I | -1.65
C307W | -0.24
C307N | -0.37
C307S | -0.41
C307Q | 0.09
C307P | -0.28
C307Y | 0.26
C307F | -0.36
C307E | -0.34
C307T | -0.77
C307K | 0.23
C307A | -0.28
C307H | -0.89
C307G | -0.44
C307D | 0.04
N312Q | -0.46
N312L | 0.12
N312H | -0.15
N312G | -0.13
N312M | 0.01
N312P | -0.09
N312A | -0.03
N312R | 0.27
N312Y | 0.54
N312K | 0.25
N312E | 0.35

Variant | SGCB cell-surface expression functional score (log10)
N312W | 0.57
N312F | 0.03
N312T | 0.06
N312V | 0.13
N312S | 0.08
N312C | -0.41
N312D | 0.1
N312I | 0.12
M305K | 0.09
M305H | -0.9
M305D | -0.25
M305C | -0.18
M305F | -0.74
M305P | -0.21
M305N | -1.05
M305I | 0.19
M305Y | -1.05
M305Q | -0.28
M305W | -0.29
M305G | -0.51
M305R | -0.25
M305E | 0.04
M305A | -0.71
M305S | -0.39
M305L | -0.06
M305V | -0.22

Variant | SGCB cell-surface expression functional score (log10)
M305T | 0.02
N316Y | 0.39
N316S | -0.05
N316W | -0.12
N316L | -0.05
N316Q | 0.13
N316G | -0.83
N316E | -0.68
N316I | -0.06
N316C | 0.11
N316D | 0.19
N316V | -0.19
N316F | 0.15
N316K | 0.03
N316H | 0.47
N316P | 0.29
N316R | 0.15
N316A | -0.18
N316M | 0.48
N316T | 0.37
G306K | -0.17
G306M | -1.83
G306P | -1.24
G306R | -0.84
G306N | -0.83
G306T | -0.64

Variant | SGCB cell-surface expression functional score (log10)
G306C | -0.99
G306Y | -1.16
G306Q | -0.33
G306H | 0.17
G306E | -0.55
G306W | -1.81
G306I | -0.62
G306L | -0.44
G306D | -0.69
G306V | -0.76
G306A | -0.83
G306F | -0.43
G306S | -0.32
S302E | -0.24
S302M | -1.5
S302H | 0.54
S302K | 0.45
S302P | -0.74
S302R | 0.1
S302W | -0.56
S302F | 0.61
S302T | -1.04
S302Q | -1.84
S302Y | -0.06
S302D | -1.03
S302L | -0.93

Variant | SGCB cell-surface expression functional score (log10)
S302I | 0.38
S302N | -1.18
S302G | -0.36
S302V | 0.35
D311R | 0.34
D311T | -0.93
D311A | 0.29
D311P | -0.48
D311L | 0.05
D311F | 0.43
D311M | 0.69
D311E | -0.14
D311C | 0.1
D311Y | -0.64
D311S | -0.06
D311N | 0.01
D311H | 0.31
D311K | -0.22
D311I | 0.18
D311V | 0.04
D311Q | -0.87
D311W | 0.22
D311G | 0.11
Q308V | -0.04
Q308E | 0.05
Q308Y | 0.02

Variant | SGCB cell-surface expression functional score (log10)
Q308I | -0.15
Q308C | -0.4
Q308L | -0.83
Q308T | -0.05
Q308D | 0.17
Q308G | -0.76
Q308R | 0.12
Q308M | 0.09
Q308P | -1.21
Q308H | -0.29
Q308K | -0.5
Q308S | -0.37
Q308F | -0.31
Q308N | -0.38
Q308A | -0.46
Q308W | -0.34

Reference: the supplement of paper PMC10266784
